# Measured values taken from patent US20220175942A1 (published 2022).
# T1: CCL22_HUMAN (human, UniProt O00626 25-93)
# T1 chain: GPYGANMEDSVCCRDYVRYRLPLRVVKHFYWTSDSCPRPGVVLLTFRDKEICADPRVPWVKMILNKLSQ
# T2: CCL1_HUMAN (human, UniProt P22362 24-96)
# T2 chain: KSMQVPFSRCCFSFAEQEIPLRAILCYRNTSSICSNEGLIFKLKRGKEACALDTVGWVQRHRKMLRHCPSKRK
# T3: CCL5_HUMAN (human, UniProt P13501 24-91)
# T3 chain: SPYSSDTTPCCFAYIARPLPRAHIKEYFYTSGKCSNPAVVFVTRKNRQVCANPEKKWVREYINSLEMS
# T4: CCL3_HUMAN (human, UniProt P10147 24-92)
# T4 chain: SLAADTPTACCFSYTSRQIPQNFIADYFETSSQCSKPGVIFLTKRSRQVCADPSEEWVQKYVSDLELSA
# T5: CCL8_HUMAN (human, UniProt P80075 24-99)
# T5 chain: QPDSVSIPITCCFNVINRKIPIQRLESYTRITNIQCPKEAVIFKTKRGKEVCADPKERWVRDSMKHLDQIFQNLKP
# T6: CCL18_HUMAN (human, UniProt P55774 21-89)
# T6 chain: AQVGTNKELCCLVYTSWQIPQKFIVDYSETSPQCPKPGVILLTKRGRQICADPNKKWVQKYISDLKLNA
# T7: CCL4 (human, UniProt P13236 24-92)
# T7 chain: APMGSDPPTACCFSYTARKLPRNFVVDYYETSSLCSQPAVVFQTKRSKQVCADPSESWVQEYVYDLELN
# T8: CCL17_HUMAN (human, UniProt Q92583 24-94)
# T8 chain: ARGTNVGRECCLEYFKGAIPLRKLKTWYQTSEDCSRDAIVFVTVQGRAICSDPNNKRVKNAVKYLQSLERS
# T9: CCL19_HUMAN (human, UniProt Q99731 22-98)
# T9 chain: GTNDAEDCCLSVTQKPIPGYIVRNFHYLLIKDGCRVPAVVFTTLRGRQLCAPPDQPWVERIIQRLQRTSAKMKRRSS
# T10: CCL15_HUMAN (human, UniProt Q16663 22-113)
# T10 chain: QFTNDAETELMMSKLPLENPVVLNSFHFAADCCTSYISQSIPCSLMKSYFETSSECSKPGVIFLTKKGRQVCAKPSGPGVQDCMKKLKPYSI
# B1: P1243_AMBAM (other)
# chain: RNHTEDNSTEYYDYEEARCACPARHLNNTNGTVLKLLGCHYFCNGTLCTAPDGYPCYNLTAQQVRTLTTYPNTSCAVGVCMKGTCVKNGTMEQCFKTP
# Assays:
# Test in all cases: BLI
# CCL23_HUMAN = target: CCL23_HUMAN
# CCL24_HUMAN = target: CCL24_HUMAN
# CCL27_HUMAN = target: CCL27_HUMAN
# CCL22_HUMAN = target: T1, CCL22_HUMAN
# CCL3L1_HUMAN = target: CCL3L1_HUMAN
# CCL4L1_HUMAN = target: CCL4L1_HUMAN
# CCL7_HUMAN = target: CCL7_HUMAN
# CCL14_HUMAN = target: CCL14_HUMAN
# CCL13_HUMAN = target: CCL13_HUMAN
# CCL16_HUMAN = target: CCL16_HUMAN
# CCL21_HUMAN = target: CCL21_HUMAN
# CCL1_HUMAN = target: T2, CCL1_HUMAN
# CCL5_HUMAN = target: T3, CCL5_HUMAN
# CCL3_HUMAN = target: T4, CCL3_HUMAN
# CCL8_HUMAN = target: T5, CCL8_HUMAN
# CCL20_HUMAN = CCL20_HUMAN (human, UniProt P78556 27-96)
# CCL18_HUMAN = target: T6, CCL18_HUMAN
# CCL4 = target: T7, CCL4
# CCL17_HUMAN = target: T8, CCL17_HUMAN
# CCL19_HUMAN = target: T9, CCL19_HUMAN
# CCL11_HUMAN = CCL11_HUMAN (human, UniProt P51671 24-97)
# CCL15_HUMAN = target: T10, CCL15_HUMAN
# Sequence of CCL11_HUMAN (P51671 24-97): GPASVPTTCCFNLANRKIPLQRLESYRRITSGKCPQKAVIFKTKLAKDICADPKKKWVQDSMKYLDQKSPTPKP
# Sequence of CCL20_HUMAN (P78556 27-96): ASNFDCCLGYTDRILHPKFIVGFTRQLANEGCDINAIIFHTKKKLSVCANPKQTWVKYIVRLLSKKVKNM
binder,measurement,setting,value
B1,Kd,CCL23_HUMAN,6.62 nM
same,Kd,CCL24_HUMAN,7.39 nM
same,Kd,CCL27_HUMAN,15.1 nM
same,Kd,CCL22_HUMAN,22.3 nM
same,Kd,CCL3L1_HUMAN,9.61 nM
same,Kd,CCL4L1_HUMAN,35.4 nM
same,Kd,CCL7_HUMAN,8.66 nM
same,Kd,CCL14_HUMAN,0.816 nM
same,Kd,CCL13_HUMAN,0.788 nM
same,Kd,CCL16_HUMAN,0.926 nM
same,Kd,CCL21_HUMAN,6.54 nM
same,Kd,CCL1_HUMAN,21.3 nM
same,Kd,CCL5_HUMAN,1.74 nM
same,Kd,CCL3_HUMAN,5.3 nM
same,Kd,CCL8_HUMAN,21.9 nM
same,Kd,CCL20_HUMAN,8.34 nM
same,Kd,CCL18_HUMAN,5.01 pM
same,Kd,CCL4,15.3 nM
same,Kd,CCL17_HUMAN,0.734 nM
same,Kd,CCL19_HUMAN,0.592 nM
same,Kd,CCL11_HUMAN,6.03 nM
same,Kd,CCL15_HUMAN,5.05 nM
